One data set addresses T1, NoMnmE (Nostoc sp. PCC 7120 = FACHB-418, UniProt Q8YN91).
T1 construct: gene mnmE; full length, N-terminal His-tag (pET14b, E. coli BL21-DE3) cut by thrombin; homodimer
T1 sequence (Q8YN91 1-459): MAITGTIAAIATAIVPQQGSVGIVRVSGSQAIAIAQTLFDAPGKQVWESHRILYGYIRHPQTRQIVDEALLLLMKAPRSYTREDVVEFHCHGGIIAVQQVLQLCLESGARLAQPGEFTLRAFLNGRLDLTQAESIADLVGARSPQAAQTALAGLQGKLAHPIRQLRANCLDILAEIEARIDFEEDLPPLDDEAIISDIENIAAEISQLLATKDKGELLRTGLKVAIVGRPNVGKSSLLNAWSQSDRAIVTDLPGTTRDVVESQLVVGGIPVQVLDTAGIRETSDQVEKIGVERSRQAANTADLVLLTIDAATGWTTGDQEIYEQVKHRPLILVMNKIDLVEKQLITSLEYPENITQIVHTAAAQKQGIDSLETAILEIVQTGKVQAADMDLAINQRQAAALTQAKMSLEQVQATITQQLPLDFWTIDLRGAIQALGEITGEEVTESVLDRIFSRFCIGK
The data set can be described thus: X-ray crystal structure. The format is binding. As to conditions: copurified from E. coli; two sites in N-terminal domain dimer interface; GDP also bound.

The target in another data set is T2, CtMnmE (Chlorobaculum tepidum, UniProt Q8KAS1).
T2 construct: gene mnmE; full length, N-terminal His-tag (pET14b, E. coli BL21-DE3) cut by thrombin; homodimer
T2 sequence (Q8KAS1 1-473): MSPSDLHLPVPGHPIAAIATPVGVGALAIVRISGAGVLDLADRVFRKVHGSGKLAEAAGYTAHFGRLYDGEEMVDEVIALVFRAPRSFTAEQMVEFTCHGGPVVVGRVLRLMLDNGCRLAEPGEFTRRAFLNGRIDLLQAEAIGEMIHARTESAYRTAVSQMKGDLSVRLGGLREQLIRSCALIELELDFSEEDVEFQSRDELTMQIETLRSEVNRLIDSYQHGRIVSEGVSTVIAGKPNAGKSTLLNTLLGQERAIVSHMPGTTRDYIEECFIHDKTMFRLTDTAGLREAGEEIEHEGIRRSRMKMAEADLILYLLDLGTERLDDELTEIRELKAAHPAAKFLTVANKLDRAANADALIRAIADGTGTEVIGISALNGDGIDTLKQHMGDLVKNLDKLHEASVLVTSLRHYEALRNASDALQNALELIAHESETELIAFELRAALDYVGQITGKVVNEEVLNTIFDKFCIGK
The data set can be described thus: X-ray crystal structure (soak). The format is binding. The note with it: 5 mM 5-F-THF in cryoprotectant; N-terminal domain dimer interface; GDP also bound.

Data set [1] deals with the molecule itself. The data set can be described thus: pulse EPR (four-pulse DEER) of spin-labelled protein; 200–500 µM MTSSL-labelled protein in 100 mM KCl (or NaCl, RbCl, CsCl, NH4Cl), 50 mM Tris-HCl, 5 mM MgCl2 pH 7.4; apo, 1 mM GDP, 1 mM GppNHp or GDP-AlFx; measured at 50 K; distances between the two symmetry-related labels of the dimer.
Data set [2] concerns the molecule itself. Kind of data set: crystal structure; full-length MnmE crystallised with K+, GDP and AlFx (only GDP found bound); hanging-drop vapour diffusion; homodimer by crystallographic symmetry.

This is an account of results in PMC2749940, “Kissing G Domains of MnmE Monitored by X-Ray Crystallography and Pulse Electron Paramagnetic Resonance Spectroscopy” (PLoS Biology, 2009).

For `Nc1nc2c(c(=O)[nH]1)N(C=O)[C@@H](CNc1ccc(C(=O)N[C@@H](CCC(=O)O)C(=O)O)cc1)CN2` [5-F-THF, 5-formyl-tetrahydrofolate], the X-ray crystal structure entry on NoMnmE is listed as “two molecules of 5-formyl-tetrahydrofolate (5-F-THF) were identified in the structure of NoMnmE·GDP”. The “X-ray crystal structure (soak)” value on CtMnmE is given as “in the crystal structure 5-F-THF is found in identical positions as in the NoMnmE·GDP-dimer”.

B1: E. coli MnmE-C451S E287R1 (Glu287 mutated to Cys, MTSSL-labelled) (natural protein, UniProt P25522 1-454, looked up)
chain: MSDNDTIVAQATPPGRGGVGILRISGFKAREVAETVLGKLPKPRYADYLPFKDADGSVLDQGIALWFPGPNSFTGEDVLELQGHGGPVILDLLLKRILTIPGLRIARPGEFSERAFLNDKLDLAQAEAIADLIDASSEQAARSALNSLQGAFSARVNHLVEALTHLRIYVEAAIDFPDEEIDFLSDGKIEAQLNDVIADLDAVRAEARQGSLLREGMKVVIAGRPNAGKSSLLNALAGREAAIVTDIAGTTRDVLREHIHIDGMPLHIIDTAGLREASDEVERIGICRAWQEIEQADRVLFMVDGTTTDAVDPAEIWPEFIARLPAKLPITVVRNKADITGETLGMSEVNGHALIRLSARTGEGVDVLRNHLKQSMGFDTNMEGGFLARRRHLQALEQAAEHLQQGKAQLLGAWAGELLAEELRLAQQNLSEITGEFTSDDLLGRIFSSFSIGK
modifications: MTSSL spin label (R1 side chain) on the cysteine at 287
notes: MnmE of E. coli, full length, Cys mutant in the C451S background; also called EcMnmE E287R1; source: purified, nucleotide-free
B1: the binding result in data set [1] was “binds”.

B2: E. coli MnmE-C451S D366R1 (Asp366 mutated to Cys, MTSSL-labelled) (natural protein, UniProt P25522 1-454, looked up)
chain: MSDNDTIVAQATPPGRGGVGILRISGFKAREVAETVLGKLPKPRYADYLPFKDADGSVLDQGIALWFPGPNSFTGEDVLELQGHGGPVILDLLLKRILTIPGLRIARPGEFSERAFLNDKLDLAQAEAIADLIDASSEQAARSALNSLQGAFSARVNHLVEALTHLRIYVEAAIDFPDEEIDFLSDGKIEAQLNDVIADLDAVRAEARQGSLLREGMKVVIAGRPNAGKSSLLNALAGREAAIVTDIAGTTRDVLREHIHIDGMPLHIIDTAGLREASDEVERIGIERAWQEIEQADRVLFMVDGTTTDAVDPAEIWPEFIARLPAKLPITVVRNKADITGETLGMSEVNGHALIRLSARTGEGVCVLRNHLKQSMGFDTNMEGGFLARRRHLQALEQAAEHLQQGKAQLLGAWAGELLAEELRLAQQNLSEITGEFTSDDLLGRIFSSFSIGK
modifications: MTSSL spin label (R1 side chain) on the cysteine at 366
notes: MnmE of E. coli, full length, Cys mutant in the C451S background; source: purified, nucleotide-free
For B2, the binding result in data set [1] is “binds”.

B3: E. coli MnmE-C451S S278R1 (Ser278 mutated to Cys, MTSSL-labelled) (natural protein, UniProt P25522 1-454, looked up)
chain: MSDNDTIVAQATPPGRGGVGILRISGFKAREVAETVLGKLPKPRYADYLPFKDADGSVLDQGIALWFPGPNSFTGEDVLELQGHGGPVILDLLLKRILTIPGLRIARPGEFSERAFLNDKLDLAQAEAIADLIDASSEQAARSALNSLQGAFSARVNHLVEALTHLRIYVEAAIDFPDEEIDFLSDGKIEAQLNDVIADLDAVRAEARQGSLLREGMKVVIAGRPNAGKSSLLNALAGREAAIVTDIAGTTRDVLREHIHIDGMPLHIIDTAGLREACDEVERIGIERAWQEIEQADRVLFMVDGTTTDAVDPAEIWPEFIARLPAKLPITVVRNKADITGETLGMSEVNGHALIRLSARTGEGVDVLRNHLKQSMGFDTNMEGGFLARRRHLQALEQAAEHLQQGKAQLLGAWAGELLAEELRLAQQNLSEITGEFTSDDLLGRIFSSFSIGK
modifications: MTSSL spin label (R1 side chain) on the cysteine at 278
notes: as for B2
Turning to B3, the binding result in data set [1] is on record as “binds”.

B4: E. coli MnmE-C451S I105R1 (Ile105 mutated to Cys, MTSSL-labelled) (natural protein, UniProt P25522 1-454, looked up)
chain: MSDNDTIVAQATPPGRGGVGILRISGFKAREVAETVLGKLPKPRYADYLPFKDADGSVLDQGIALWFPGPNSFTGEDVLELQGHGGPVILDLLLKRILTIPGLRCARPGEFSERAFLNDKLDLAQAEAIADLIDASSEQAARSALNSLQGAFSARVNHLVEALTHLRIYVEAAIDFPDEEIDFLSDGKIEAQLNDVIADLDAVRAEARQGSLLREGMKVVIAGRPNAGKSSLLNALAGREAAIVTDIAGTTRDVLREHIHIDGMPLHIIDTAGLREASDEVERIGIERAWQEIEQADRVLFMVDGTTTDAVDPAEIWPEFIARLPAKLPITVVRNKADITGETLGMSEVNGHALIRLSARTGEGVDVLRNHLKQSMGFDTNMEGGFLARRRHLQALEQAAEHLQQGKAQLLGAWAGELLAEELRLAQQNLSEITGEFTSDDLLGRIFSSFSIGK
modifications: MTSSL spin label (R1 side chain) on the cysteine at 105
notes: as for B2
As for B4, the binding result in data set [1] is “binds”.

B5: Nostoc sp. 7120 MnmE (natural protein, UniProt Q8YN91 1-459, looked up)
chain: MAITGTIAAIATAIVPQQGSVGIVRVSGSQAIAIAQTLFDAPGKQVWESHRILYGYIRHPQTRQIVDEALLLLMKAPRSYTREDVVEFHCHGGIIAVQQVLQLCLESGARLAQPGEFTLRAFLNGRLDLTQAESIADLVGARSPQAAQTALAGLQGKLAHPIRQLRANCLDILAEIEARIDFEEDLPPLDDEAIISDIENIAAEISQLLATKDKGELLRTGLKVAIVGRPNVGKSSLLNAWSQSDRAIVTDLPGTTRDVVESQLVVGGIPVQVLDTAGIRETSDQVEKIGVERSRQAANTADLVLLTIDAATGWTTGDQEIYEQVKHRPLILVMNKIDLVEKQLITSLEYPENITQIVHTAAAQKQGIDSLETAILEIVQTGKVQAADMDLAINQRQAAALTQAKMSLEQVQATITQQLPLDFWTIDLRGAIQALGEITGEEVTESVLDRIFSRFCIGK
notes: MnmE of Nostoc sp; 7120, full-length protomer, cloned into pET14b; Crystallised with GDP (grown with GDP-AlFx and K+); 5-formyl-tetrahydrofolate was co-purified; also called NoMnmE; NoMnmE·GDP; source: E. coli BL21-DE3, purified (Ni-NTA, thrombin cleavage of the His-tag, gel filtration on Superdex 200); not shown: His tag, N-terminal, cleaved
Regarding B5, the binding result in data set [2] was “binds”.

B6: Chlorobium tepidum MnmE (natural protein, UniProt Q8KAS1 1-473, looked up)
chain: MSPSDLHLPVPGHPIAAIATPVGVGALAIVRISGAGVLDLADRVFRKVHGSGKLAEAAGYTAHFGRLYDGEEMVDEVIALVFRAPRSFTAEQMVEFTCHGGPVVVGRVLRLMLDNGCRLAEPGEFTRRAFLNGRIDLLQAEAIGEMIHARTESAYRTAVSQMKGDLSVRLGGLREQLIRSCALIELELDFSEEDVEFQSRDELTMQIETLRSEVNRLIDSYQHGRIVSEGVSTVIAGKPNAGKSTLLNTLLGQERAIVSHMPGTTRDYIEECFIHDKTMFRLTDTAGLREAGEEIEHEGIRRSRMKMAEADLILYLLDLGTERLDDELTEIRELKAAHPAAKFLTVANKLDRAANADALIRAIADGTGTEVIGISALNGDGIDTLKQHMGDLVKNLDKLHEASVLVTSLRHYEALRNASDALQNALELIAHESETELIAFELRAALDYVGQITGKVVNEEVLNTIFDKFCIGK
notes: MnmE of Chlorobium tepidum, full-length protomer, cloned into pET14b; Crystallised with GDP (grown with GDP-AlFx and K+) and with GppCp; homodimer through the N-terminal domains; also called CtMnmE; CtMnmE·GDP; source: E. coli BL21-DE3, purified (Ni-NTA, thrombin cleavage of the His-tag, gel filtration on Superdex 200); not shown: His tag, N-terminal, cleaved
On to B6, for which the binding result in data set [2] is listed as “binds”.
